In patent publication US20090291081A1 (AbbVie / Abbott, published 2009):
Substitutions are numbered along the chain they refer to.

T1: human IL-1α (human, UniProt P01583 113-271)
T1 sequence (looked up): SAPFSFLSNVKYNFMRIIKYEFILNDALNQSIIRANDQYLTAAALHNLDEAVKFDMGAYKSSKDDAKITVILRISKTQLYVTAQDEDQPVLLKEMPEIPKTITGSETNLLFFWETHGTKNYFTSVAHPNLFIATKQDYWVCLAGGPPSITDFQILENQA

B1: ABT2-65/ABT1-141 hu IgG1/K wt (bispecific antibody, V domains shown)
VH: EVQLLESGGGLVQPGGSLRLSCAASGFTFEDYQMGWVRQAPGKGLEWVSSISAMGNRTYYADSVKGRFTISRDDSKNTLYLQMNSLRAEDTAVYYCAKNLVRTQSKMWMFDYWGQGTLVTVSS
VL: DIQMTQSPSSLSASVGDRVTITCRASQWIQKQLAWYQQKPGKAPKLLIYSSSYLQSGVPRFSGSGSGTDFTLTISSLQPEDFATYYCQQHLRVPFTFGQGTKVEIKR
B2: ABT2-65-166/ABT1-95-15 hu IgG1/K wt (bispecific antibody, V domains shown)
VH: B1 VH with N56G, D74N, K98Q, T103L, Q104G, S105R, K106S, M107R
VL: DIQMTQSPSSLSASVGDRVTITCRASQPIVRNLRWYQQKPGKAPKLLIYSSSYLEPGVPSRFSGSGSGTDFTLTISSLQPEDFATYHCQQGYRWPVTFGQGTKVEIKR
B3: ABT2-65-201/ABT1-95-15 hu IgG1/K mut (234; 235) (bispecific antibody, V domains shown)
VH: B1 VH with A23V, N56R, D74N, K98Q, T103L, Q104G, S105R, K106S, M107R
VL: B2 VL
B4: ABT2-65-17/ABT1-141 hu IgG1/K wt (bispecific antibody, V domains shown)
VH: B1 VH with A23V, K98Q, T103L, Q104G, S105R, K106S, M107R
VL: B1 VL
B5: ABT2-65-8/ABT1-212 hu IgG1/K wt (bispecific antibody, V domains shown)
VH: B1 VH with K98Q, T103M, Q104D, K106R, M107R
VL: DIQMTQSPSSLSASVGDRVTITCRASQRINGNLRWYQQKPGKAPKLLIYSVSQLQSGVPSRFSGSGSGTDFTLTISSLQPEDFATYYCQQGYDWPPTFGQGTKVETKR
B6: ABT2-65-8/ABT1-141 hu IgG1/K wt (bispecific antibody, V domains shown)
VH: B1 VH with K98Q, T103M, Q104D, K106R, M107R
VL: B1 VL
B7: ABT2-108/ABT1-122-505 hu IgG1/K wt (bispecific antibody, V domains shown)
VH: EVQLLESGGGLVQPGGSLRLSCAASGFTFAEYTMMWVRQAPGKGLEWVSRIGQDGKNTYYADSVKGRFTISRDNSKNTLYLQMNSLRAEDTAVYYCAKYTGRVGVHHLFDYWGQGTLVTSS
VL: DIQMTQSPSSLSASVGDRVTITCRASQPIWTELNWYQQKPGKAPKLLIYGSSSLQSGVPSRFSGSGSGTDFTLTISSLQPEDFATYYCKQFAYFPATFGQGTKVEIKR
B8: ABT2-108/ABT1-122-555 hu IgG1/K wt (bispecific antibody, V domains shown)
VH: B7 VH
VL: B7 VL with A43T, K89Q
B9: ABT2-108/ABT1-122-556 hu IgG1/K wt (bispecific antibody, V domains shown)
VH: B7 VH
VL: B7 VL with Y87H, K89Q
B10: ABT2-108-620x/ABT1-122-512 huIgG1/K wt (bispecific antibody, V domains shown)
VH: EVQLLESGGGLVQPGGSLRLSCAASGFTFAEESWMWVRQAPGKGLEWVSRIGQDGKNTYYREDVKGRFTISRDNSKNTLYLQMNSLRAEDTAVYYCAKYTGRIMGHHLFDYWGQGTLVTVSS
VL: B7 VL with S52A, S53K, L54R, S56R
B11: ABT2-108-620x/ABT1-122-750MT hu IgG1 wt (bispecific antibody, V domains shown)
VH: B10 VH
VL: B7 VL with R24S, P28H, L33M, N34S, A43T, S52A, L54R, S56K, A96N
B12: ABT2-108/ABT1-122-554 hu IgG1/K wt (bispecific antibody, V domains shown)
VH: B7 VH
VL: B7 VL with K89Q, G101E
B13: ABT2-108-521/ABT1-122-511 hu IgG1/K wt (bispecific antibody, V domains shown)
VH: B10 VH with E32Y, S33T, W34M, R61A, E62D, D63S, M104L
VL: B7 VL with S56R
B14: ABT2-108-620x/ABT1-122-750M hu IgG1 wt (bispecific antibody, V domains shown)
VH: B10 VH
VL: B7 VL with R24S, P28H, L33M, N34S, S52A, L54R, S56K, A96N
B15: ABT2-108-620x/ABT1-122-750x huIgG1/K wt (bispecific antibody, V domains shown)
VH: B10 VH
VL: B7 VL with T20A, R24S, P28H, L33I, N34S, S52A, L54R, S56K, A96N
B16: ABT2-108/ABT1-122-508 hu IgG1/K wt (bispecific antibody, V domains shown)
VH: B7 VH
VL: B7 VL with S56R, K89Q
B17: ABT2-108-538x/ABT1-122-555 hu IgG1/K wt (bispecific antibody, V domains shown)
VH: B10 VH with E31D, S33G, W34M, G52T, Q53Y, D54S, R61A, E62D, D63S, M104L
VL: B7 VL with A43T, K89Q
B18: ABT2-108-521/ABT1-141-25 hu IgG1/K wt (bispecific antibody, V domains shown)
VH: B10 VH with E32Y, S33T, W34M, R61A, E62D, D63S, M104L
VL: DIQMTQSPSSLSASVGDRVTITCRASQWIQKQLAWYQQKPGKAPKLLIYSSSYLQSGVPSRFSGSGSGTDFTLTISSLQPEDFATYYCQQHLRVPMTFGQGTKVEIKR
B19: ABT2-108-538x/ABT1-221 huIgG1/K wt (second row of that name; light chain column ABT1-222) (bispecific antibody, V domains shown)
VH: B10 VH with E31D, S33G, W34M, G52T, Q53Y, D54S, R61A, E62D, D63S, M104L
VL: B2 VL with V30T, S50H, Y53V, E55Q, P56S, H87Y
B20: ABT2-108-538x/ABT1-221 huIgG1/K wt (bispecific antibody, V domains shown)
VH: B10 VH with E31D, S33G, W34M, G52T, Q53Y, D54S, R61A, E62D, D63S, M104L
VL: DIQMTQSPSSLSASVGDRVTITCRASQDIWPYLMWYQQKPGKAPKLLIYYSSMLQSGVPSRFSGSGSGTDFTLTISSLQPEDFATYYCQQFRRWPYTFGQGTKVEIKR

Molecular target: human IL-1β (human, UniProt P01584 117-269)
Experiment: cell-based or functional assay

Binder	IL-1β IC50 [nM]
B1	100
B2	0.13
B3	0.03
B4	0.4
B5	3.5
B6	0.09
B7	20
B8	7
B9	15
B10	0.006
B11	0.00482
B12	9
B13	0.16
B14	0.00555
B15	0.005
B16	20
B17	0.015
B18	0.1
B19	0.01
B20	0.01

Molecular target: T1, human IL-1α
Experiment: cell-based or functional assay

Binder	IL-1α IC50 [nM]
B1	7000
B2	1.89
B3	0.652
B4	70
B5	5000
B6	450
B7	2000
B8	70
B9	150
B10	150
B11	10.1
B12	150
B13	150
B14	18.5
B15	17.5
B16	400
B17	25
B18	20
B19	200
B20	200
